From the nanobody polyreactivity screen of Harvey et al. (2022)

Test: yeast display, Sf9 membrane polyspecificity reagent, FACS + sequencing; frameworks hold sequencing errors
In short: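 Sorting gates, low and high (top ~1%), were placed on anti-HA fluorescence to track expression and on streptavidin fluorescence to track reagent binding. A clone's polyreactivity label is taken from the gate it came out of. The reagent was 10% biotinylated, detergent-solubilized Sf9 membrane, applied for 1 hour at 4 °C to galactose-induced yeast display cells.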

Sequence: QVQLVESGGGLVQAGGSLRLSCAASGSTFWSYAMGWYRQAPGKERELVAVITWSGGSTNYADSVKGRFTISRDNAKNTVYLQMNSLKPEDTAVYYCNAPYYFWSYIYDYLGQGTQVTVSS
- polyreactivity (PSR sort gate): low polyreactivity

Sequence: QVQLVESGGGLVQAGGSLRLSCAASGFTSGYYAMGWYRQAPGKESELVAAIDWSDGGTYYADSVKGRFTISRDNAKNTVYLQMNSLKPEDTAVYYCATVRYVQITRDDYWGQGTQVTVSS
- polyreactivity (PSR sort gate): low polyreactivity

Sequence: QVQLVESGGGLVQAGGSLRLSCAASGRIFSSYAMGWYRQAPGKERELVAAIRYDAGSTYYADSVKGRFTISRDHAKNTVYLQMNSLKPEDTAVYYCAARIYFEQWSWYGYWGQGTQVTVSS
- polyreactivity (PSR sort gate): high polyreactivity

Sequence: QVQLVESGGGLVQAGGSLRLSFAASGITFGYYDMGWYRQAPGKERELVASISSGGNTNYADSVKGRFTISRDNAKNTVYLQMNSLKPEDTAVYYCNVRYWGFYDYDYWGQGTQVTVSS
- polyreactivity (PSR sort gate): low polyreactivity

Sequence: QVQLVESGGGLVQAGASLRLSCAASGSIFDPYAMGWYRQAPGKERQLVAAITYSVGGTTYYADSVKGRFTISRDNAKNTVYLQMNSLKPEDTAVYYCAAEWWGTPFDYWGQGTQVTVSS
- polyreactivity (PSR sort gate): high polyreactivity

Sequence: QVQLVESGGGLVQAGGSLRLSCAASGSIFGPNAMGWYRQAPGKESELVAAITLSGGSTYYADSVKGRFTISRDNAKNTVYLQMYSLKPEDTAVYYCNADLLPADAPLWVTGGDYWGQGTQVTVTS
- polyreactivity (PSR sort gate): low polyreactivity

Sequence: QVQLVESGGGLVQAGGSLRLSCASSGRIFSFYAMGWYRQAPGKERELVAAISWNSGRTYYADSVKGRFTISRDNAKNTVYLQMNSLKPEDTAVYYCAAPFSAYYGDDYWGQGTQVTVSS
- polyreactivity (PSR sort gate): low polyreactivity

Sequence: QVQLVESGGGLVQAGGSLRLSCADSGITLYEYAMGWYRKAPGKERELVAAISTSGGRTRYADSVKGRFTISRDNAKNTVYLQMNSLKPEDTAVYYCAASGFVQISNPRRDYWGLGTQVTVSS
- polyreactivity (PSR sort gate): high polyreactivity

Sequence: QVQLVESGGGLVQAGGSLRLSCAASGFIFVSYAMGWYRQAPGKERELVAAIDRIGGITYYADSVKGRFSISRDNAKNTVYLQMNSLKPEDTAVYYCAAAARYATVRVGREYYWGQGTQVTVSS
- polyreactivity (PSR sort gate): low polyreactivity

Sequence: QVQLVESGGGLVQAGGSLRLSCAASGSTFSYNAMGWYRQAPGKERELVAAISRGDVSTYYADSVKGRFTISRDNAKNTVYLQMNSLKPEDTAVYYCAAYWYGSQYKWRYDYWGQGTQVTVSS
- polyreactivity (PSR sort gate): low polyreactivity

Sequence: QVQLVESGGGLVKAGGSLRLSCAASGRTFLRNAMGWYRQAPGKERELVATITRGGSTYYADSVKGRFTISRDNAKNTVYLQMNSLKPEDTAVYYCAKDITGGFRRPDYGYWGHGTQVTVSS
- polyreactivity (PSR sort gate): low polyreactivity

Sequence: QVHLVESGGGLVQAGGSLRLSCADSGTTFHKYAMGWYRQAPGTERELVARISVGGDSTYYADSVKGRFTISRDNAKNTDYLQIISLKPEDTAVYYCAKVRYLVFLYPPRYYYWGQGTEVTVSS
- polyreactivity (PSR sort gate): low polyreactivity

Sequence: QVQLVESGGGLVQAGGSLRLSCAPSGSIFIRNAMGWYRQAPGKERELVAAISGSGSSTYYADSVKGRFTISRDNAKNTVYLQMNSLKPEDTAVYYCNTDRTHSYQYGGYDYWGQGTQVTVSS
- polyreactivity (PSR sort gate): low polyreactivity

Sequence: QVQLVESGGGLVQAGGSLRLSCAASGSTFETNAMGWYRPAPGKERELVAAIRWSTGNTYYADSVKGRFTISRDNAKNTVYLQMNSLKPEDTEVYYCAAYKGKHYIEGYWGQGTQVTVSS
- polyreactivity (PSR sort gate): low polyreactivity

Sequence: QVQLVESGGGLVHAGGILRLSCAASGRTFRYYTMGWYRQEPGKERELVAAISSGGGNTYYADSVKGRFTISRDNAKNTVYLQMNSLKPEDTAVYYCAVPWYTRESGAYDYWGQGSQVTVSS
- polyreactivity (PSR sort gate): high polyreactivity

Sequence: QVQLVESGGGLVQAGGSLRLSCAASGRILSVYAMGWYRQAPGKERELVAAIEYSGGSTNYADSVKGRFTISRDNAKHTVYLQMNSLKPEDTAVYYCNREGGAIAWRYLLEYLYSWGQGTQVTVSS
- polyreactivity (PSR sort gate): low polyreactivity

Sequence: QVQLVESGGGLVQAGGTLRLSCAASGYTFGVYFMGWYRHAPGKERELVAAISGSTYYADSVKGRFTISRDNAKNTVYLQMNSLKQEDTAVYYCAAESYFFSPRTREKFDYWGQGTQVTVSS
- polyreactivity (PSR sort gate): low polyreactivity

Sequence: QVQLVESGGGLVQAGGSLRLSCAASGRTFGSNAMGWYRQAPGKERELVAAITRRGGSTYYADSVKGRFTISRDNAMNTVYLQMNSLKPEDTAVYYCATDPVSTRGSDYWGQGTQVTVSS
- polyreactivity (PSR sort gate): low polyreactivity

Sequence: QVQLVESGGGLVQAGGRLRLSCAASGLILSSNALGWYRQAPGKARELVAAITWDGDRTYADSVKGRFTISRDNAKNTVYLQQNSLKPEDTAVYYCAADKQYYWYDWSYEYWGQGTQVTVSW
- polyreactivity (PSR sort gate): low polyreactivity

Sequence: QVQLVESGGGLVQAGGSLRLSCAASGFTLANYAMGWYRQAPGKERELVAAIDYSGGGTYYADSVKGRFTISRDNAKNTVYLQMNSLKPEDTAVYYCAARRWSYYSAKYDYWGQGTQVTVSS
- polyreactivity (PSR sort gate): low polyreactivity

Sequence: QVQLVESGGGLVQAGGSLRLSCAASGLIFPANAMGWYRPAPGKERELVAAISWRGSSTYYADSVKGRFTISRDNAKNTVYLQMNSLKPEDTAVYYCNVYVRSGSLRDIGYKYDYWGQGTQVTVSS
- polyreactivity (PSR sort gate): high polyreactivity

Sequence: QVQLQERGDGLGQAVGSLRLSCAASGYISGYYYLGWYRQAPGKEGVVVAGIDAFGSRTNFADCVKGRFTISRDNAKNPVDLQMNSLKPEETAVYYCAARPDGDRLFSYWGQGPQVTVSS
- polyreactivity (PSR sort gate): low polyreactivity

Sequence: QVQLVESGGGLVQAGGSLRLSCAASGGIFRGYAMGWYRQAPGKERELVAAITKRGGRTYYADSVKGRFTISRDNAKNTVYLQMNSLKPEDTAVYYCAADYYAAYHLPDQDYDYWGQGTQVTVSS
- polyreactivity (PSR sort gate): high polyreactivity

Sequence: QFQLVESVGGLVQAGGSLRLSCAASGFTFPSYAMGWYRQAPGKERELVAAISYRGGRTYYADSVKWRFTISRDNAKNTVYLQMNSLKPEDTAVYYCNALFATVPPWGFDYWGQGTQVTVSS
- polyreactivity (PSR sort gate): high polyreactivity

Sequence: QVQLVESGGGLVQAGGRLRLSCAASASTIVGNAMGWYRQAPGKERELVATISNSGGRTYYADSVKGRFTISRDNSKYTVYLQMNSLKPEDTAVYYCNADIYPHDGYPWQGDYDYWGQGTQVTVSS
- polyreactivity (PSR sort gate): low polyreactivity

Sequence: QVQLVESGGGLLQAGGSLRLSCAASGSTYIGNAMGWYRQAPGKERELVAAITSGGSTNYADSVKGRFTISRDNAKNTVYLQKNSLKPEDTAVYYCAKPSRWGWTGFYAYDYWGQGTQVTVSS
- polyreactivity (PSR sort gate): low polyreactivity

Sequence: QVQLVESGGGLDQAGGSLRLSCAASGRTSKTYAMGWYRQAPGKERELVATIDRSGDGTYYADSVKGRFTISRDNAKNTVYLQMNSLKPEDTAVYYCNAVTSSFYNRDSDYWGQGTQVSVSS
- polyreactivity (PSR sort gate): high polyreactivity

Sequence: QVQLQESGGGLVQAGGILRLSCAACGNIFPSAVMGWYRQALGKEREFVATINSGSNTYYADSVKGRFTISRDNAKNTVYLQMNSLKLEDTAVYYCAAYFKLQAWHTYWGQGTQVTVSS
- polyreactivity (PSR sort gate): low polyreactivity

Sequence: QVQLVETGGGLVHAGGSLRLSCAASGSIFYAYDMGWYRQAPGKERELVAAINWSGDSTYYADSVKGRVTISRDNANNTVYLQMNSLKPEDTAVYYCAAVSGSGDSGEYDYWGQGTQVTVSS
- polyreactivity (PSR sort gate): low polyreactivity

Sequence: QVQLVESGGGLVQAGGSLRLSCAASGSTFEIYAMGWYRQAPGKERELVAAISSGGSTNYADSVKGRFTISRDNAKNTVYLQMNSLKPEDTAVYYCVYAIQFDYWGQGTQVTVSS
- polyreactivity (PSR sort gate): low polyreactivity

Sequence: QDQLVESRGGLVQAGGSLRLSCAASGRTFISNAMGWYRQAPGKERELVAADISWSGGSTYYADSVKGRFTISRDNAKNTVYLQMNIMKPEDTAVYYCNTVIRPYLAYTWSEIFDYWGQGTQVNVSS
- polyreactivity (PSR sort gate): low polyreactivity

Sequence: QVQLVESGGGLVQAGGSLRLICAASGSIFYNNDMGWYRQAPGKERELVAAINWNGGSTYYADSVKGRFTISRDNAKNTVYLQMNSLKPEDTAVYYCNAEPFWYNYGYDDDYWGQGTQVTVSS
- polyreactivity (PSR sort gate): high polyreactivity

Sequence: QVQLVESGGGLVQAGGSLRLSCAASGRTSVLYAMGWSRQAPGKEREFVAAITWNSGSTYYADSVKGRFTISRDNAKNTVYLQMISLKPEDTAVYYCNADYYFTSYRSTYDYWGQGTHVTVSS
- polyreactivity (PSR sort gate): low polyreactivity

Sequence: QVQLVESAGGLVQAGGRLRLSCAASGSTFSYYAMGWYRQAPGKEREWVAAISRSGGSTYYADSVKGRFTISRDNAKNTVYLQLNSLKPDDTAVYYCNRYYYTVTREFDYWGQGTQVTVSS
- polyreactivity (PSR sort gate): low polyreactivity

Sequence: QVQLEDSGGGLVQAGGSLRLSCAASGSTFILNAMGWYRDAPGKERELVATISSSDTSTYYADSVKGRFTISRDNAKNTVYLQMNSLKPEDTAVYYCNADYYTTSYLQRVYHYGVEYDYWGQGTQVTVSS
- polyreactivity (PSR sort gate): low polyreactivity

Sequence: QVQLVESGGGLVQAGGSLRLSCAASGSIFTDNAMGWYRQAPGKERELVAAITGRGGNTYYADSVKGRFTISRDNAKNTVYLQMNSLKPEDTAVYYCAARIFRTRKPLGYWGQGTQVTVSS
- polyreactivity (PSR sort gate): high polyreactivity

Sequence: QVQLVESGGGLVQAGGSLRLSCAASGRTFAYNVMGGYRQAPGKERELVAGISFGAGSTYYADSVKGRFTISRDNAKNTVYLQMNSLNPEDTAVYYCATRRRGTRYQLGYDYWGQGTQVTVSS
- polyreactivity (PSR sort gate): high polyreactivity

Sequence: QVQLVESGGGLVQAGGSLRLSCAASGSTFVHNAMGWYRQAPGKERELVARISFRSGRTYYADSVKGRFTISRDNAKNTVYLQMNSLKAEDTAVYYCNAVLYGQYKYDYWGQGTQVTVSS
- polyreactivity (PSR sort gate): high polyreactivity

Sequence: QVQLVESGGGLVQAGGSRRLSCAASGFTFSQYTRGWYRQAPGKERELVAAISSGSSTYYADSVKGRFTISRDNAKNTVYLQMNSLKPEDTAVYYCAARVGWYTWGYYWGQGTQVTVSS
- polyreactivity (PSR sort gate): high polyreactivity

Sequence: QVQLVESGGGLVQAGGSLRLICAASGSIFQFYAMGWYRQAPGKERELVAVITTSGVSTYYADSVKGRFTISRDNAKNTDYLQMNSLKPEDTAVYYCAADDYYLAGDYWGQGTQVTVSS
- polyreactivity (PSR sort gate): low polyreactivity

Sequence: QVQLVESGGGLVQAGGSLRLSCAASGSIFRYYAMGWYRQAPGKERELVAAITRRGGSTYYADSVKGRFTISRDNAKNTVYLQMNSLKPEDTAVYYCAASHGYQYEYWGQGTQVTVSS
- polyreactivity (PSR sort gate): high polyreactivity

Sequence: QVQLVESGGGLVQAGGSLRLSCAASGSIFGRYVMGWYRQAPGTDRELVAAISGSGTSTYYADSVKGRFTISRDNAKNTVYLQMNSLKPEDTAVYYCAARDIKSSHDYDYWGQGTQVTVSS
- polyreactivity (PSR sort gate): low polyreactivity

Sequence: QVQLVESGGGVDQAGGSLRLSCAACGSTIPYYAMGWYRQAPGKERELVAAISASTGSTNYADSVKGRFTISRDNAKNTVYLQMNSLKPEDTAVYYCAKKRSKIKRFGYWGHGTQVTVSS
- polyreactivity (PSR sort gate): high polyreactivity
